Measurements from US20110104667 (INFOSCITEX CORPORATION, published 2011).

Biological target: recombinant anthrax protective antigen (rPA) (UniProt P13423 P13423:30-764)
Experiment: ELONA
Conditions: tags: MW about 83 kDa; label: 5' biotin

recombinant anthrax protective antigen (rPA), sequence (P13423 30-764, one chain of several): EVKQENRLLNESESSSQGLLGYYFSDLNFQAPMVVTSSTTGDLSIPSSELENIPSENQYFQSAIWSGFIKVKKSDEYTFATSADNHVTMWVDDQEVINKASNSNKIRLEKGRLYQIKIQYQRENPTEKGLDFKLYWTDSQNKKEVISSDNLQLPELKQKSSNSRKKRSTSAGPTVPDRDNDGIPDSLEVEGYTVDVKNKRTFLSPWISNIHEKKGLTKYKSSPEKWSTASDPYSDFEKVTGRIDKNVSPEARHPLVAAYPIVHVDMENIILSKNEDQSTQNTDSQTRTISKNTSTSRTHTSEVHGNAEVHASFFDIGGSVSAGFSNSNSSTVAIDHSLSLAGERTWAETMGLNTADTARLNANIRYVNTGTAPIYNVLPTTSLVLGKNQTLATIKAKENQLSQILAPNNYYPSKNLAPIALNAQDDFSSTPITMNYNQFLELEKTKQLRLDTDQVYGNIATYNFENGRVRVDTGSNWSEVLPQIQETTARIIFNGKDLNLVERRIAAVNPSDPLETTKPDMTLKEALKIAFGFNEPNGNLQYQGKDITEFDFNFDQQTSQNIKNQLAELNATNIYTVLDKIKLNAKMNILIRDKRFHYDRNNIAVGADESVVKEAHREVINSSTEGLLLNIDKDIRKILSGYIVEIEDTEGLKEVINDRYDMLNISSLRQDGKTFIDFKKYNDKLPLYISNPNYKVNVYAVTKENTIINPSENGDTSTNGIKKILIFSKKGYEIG

B1: rPA DNA aptamer, biotinylated (ssDNA)
DNA: TACGACTCACTATAGGGATCCCGAGCTGCAATGGAGTGATTACTAGGGATGTGCGAGGCGCCGAATTCCCTTTAGTGAGGGTT
Question: Does B1 bind?
Answer: Result: binds
